Reference: FireProtDB (doi:10.1021/bi012042l)

B1: Fatty acid-binding protein, intestinal, P02693 (parent)
chain: MAFDGTWKVDRNENYEKFMEKMGINVVKRKLGAHDNLKLTITQEGNKFTVKESSNFRNIDVVFELGVDFAYSLADGTELTGTWTMEGNKLVGKFKRVDNGKELIAVREISGNELIQTYTYEGVEAKRIFKKE

Variants of: B1
Conditions: Rattus norvegicus; pH 7.3; 20 °C; GdnHCl; Fluorescence; potassium phosphate 20 mM; structure 1IFB; whole UniProt chain shown

Variant	denaturant midpoint (higher = more stable)	unfolding free energy
MAFDGTWKVDRNENYEKFMEKMGINVVKRKLGAHDNLKLTITQEGNKFTVKESSNFRNIDVVFELGVDFAYSLADGTELTGTWTMEGNKLVGKFKRVDNGKELIAVREISPNELIQTYTYEGVEAKRIFKKE [G111P]	1 M	5 kcal/mol
MAFDGTWKVDRNENYEKFMEKMGINVVKRKLGAHDNLKLTITQEPNKFTVKESSNFRNIDVVFELGVDFAYSLADGTELTGTWTMEGNKLVGKFKRVDNGKELIAVREISGNELIQTYTYEGVEAKRIFKKE [G45P]	0.8 M	3.1 kcal/mol
MAFDGTWKVDRNENYEKFMEKMGINVVKRKLGAHDNLKLTITQEGNKFTVKESSNFRNIDVVFELGVDFAYSLADGTELTGTWTMEGNKLVGKFKRVDNPKELIAVREISGNELIQTYTYEGVEAKRIFKKE [G100P]	0.7 M	3.5 kcal/mol
MAFDGTWKVDRNENYEKFMEKMGINVVKRKLGAHDNLKLTITQEGNKFTVKESSNFRNIDVVFELPVDFAYSLADGTELTGTWTMEGNKLVGKFKRVDNGKELIAVREISGNELIQTYTYEGVEAKRIFKKE [G66P]	0.9 M	2.5 kcal/mol
MAFDGTWKVDRNENYEKFMEKMGINVVKRKLGAHDNLKLTITQEGNKFTVKESSNFRNIDVVFELGVDFAYSLADGTELTGTWTMEGNKLVGKFKRVDNGKELIAVREISGNELIQTYTYEPVEAKRIFKKE [G122P]	0.6 M	1.2 kcal/mol
